Measurements taken from the DeepSol protein solubility set.

assay: soluble on expression in E. coli; label from the status in PepcDB or PDB records

| Sequence | soluble on expression in E. coli |
| --- | --- |
| MHSAVFSPDAPYCGAAGSNHLCEAVALCQSILARYRRTGTSFSSTELKAIQALRTEFPDTAQEPAANSAASPDQTTKDFLSILDDATDVPHNPQNDIVAFVEECCDNTKEPTVLFAAINERISAVTCSRNVRTYMVIANDNLLWDPVNGVAALIDDVTPLGKCAQARNMLTIANTLYIPLWFRSELVGCVEVPGACIPRDKATCAQLLLRCVTVAVRNSINISIRKREANKIEAMVGMATRLARDTLEESVLVQSIINTAKTLTESDRCSIFLVKADGSLEAHFEDGNVVVLPAGTGIAGHVAESGAVVNIPNAYEDDRFHRSVDKVTGYHTRTILCLPIAFEGTIVAVAQLINKLDMVTQSGQRLPRVFGRRDEELFETFSMFAAASLRNCRINETLLKEKKKSDAILDVVALLSNTDIRDVDSIVRHVLHGAKKLLNADRSSMFLLDKERNELYSKMADSANEIRFPCGQGIAGTVAESGVGENIMDAYADSRFNSAVDRQLGYRTQSILCEPITLNGEVLAVVQLVNKLGDDGSVTCFTPMDRETFQVFSLFAGISINNSHLLEFAVNAGREAMTLSLQRNSITAQRAPKSVKVIAVTPEEREAVMSIDFGGAYDFTSPGFNLFEVREKYSEPMDAAAGVVYNLLWNSGLPEKFGCREQTLLNFILQCRRRYRRVPYHNFYHVVDVCQTLHTYLYTGKASELLTELECYVLLVTALVHDLDHMGVNNSFYLKTDSPLGILSSASGNNSVLEVHHCSLAIEILSDPAADVFEGLSGQDVAYAYRALIDCVLATDMAKHADALSRFTELATSGFEKDNDTHRRLVMETLIKAGDVSNVTKPFETSRMWAMAVTEEFYRQGDMEKEKGVEVLPMFDRSKNNELARGQIGFIDFVAGKFFRDIVGNLFHGMQWCVDTVNSNRAKWQEILDGRRDSIRSSIV | not soluble |
| MHVIDLSYFVKIYRSKNKHISVNFLRHLHRAGDLHLSGTTRCIYEDVIMKKCLTLLIATVLSGISLTAYAAQPMSNLDSGQLRPAGTVSATGASNLSDLEDKLAEKAREQGAKGYVINSAGGNDQMFGTATIYK | soluble |
| MHYDVIVIGGGPSGLMAAIGAAEEGANVLLLDKGNKLGRKLAISGGGRCNVTNRLPLDEIVKHIPGNGRFLYSAFSIFNNEDIITFFENLGVKLKEEDPGRMFPVSNKAQSVVDALLTRLKDLGVKIRTNTPVETIEYENGQTKAVILQTGEVLETNHVVIAVGGKSVPQTGSTGDGYAWAEKAGHTITELFPTEVPILSNEPFIRDRSLQGLALRDINLSVLNPKGKAIISHKMDMLFTHFGLSGPAALRCSQFVVKALKKFKTNTIQMSIDALPEENSEQLFQRMLKQMKEDPKKGIKNVLKGYVPERYFLFLLEKNEIDGSEQAGQVSHEKIRALVKDFKEFTVNVNGTQSIEKAFVTGGGVSVKEINPKEMSSKFTNGLYFCGEVLDIHGYTGGYNITSALVTGRIAGTTAGENAKMQY | soluble |
| MHYPEPISKLIDSFMKLPGIGPKTAQRLAFHTLDMKEDDVVQFAKALVDVKRELTYCSVCGHITENDPCYICEDKQRDRSVICVVEDDKDVIAMEKMREYKGLYHVLHGSISPMDGIGPEDINIPSLIERLKSDEVSELILAMNPNLEGESTAMYISRLVKPIGIKVTRLAQGLSVGGDLEYADEVTLSKAIAGRTEM | not soluble |
| MIAAEAFAPHAALAQDLIPHAADTGDGSHDLAHIHRVFRNAMRIHAGEGGDGNVLAASVLLHDCVAVEKNSPLRAQASRLAAEKASGILAGLGWQKQDIDAAAHAITTHSFSANIEPQTLEAKILQDADRLDAIGMVGAARCFYIAGRMGSALYDPADPLAKERPLDDRAFAIDHFETKLFKLADGFRTETGRQMAKARHERLKQVLDLFLDEILEHHHHHH | soluble |
| MIAKEKILKGFETAEARWARFGPYYAMFPLEFAFDVVEKYSKNGDYIIDPFAGRCSSIYAGGVLGRNSLGLEINPVGWLYGTVKLHPAEKEEVIDRLLEIYSKRNYYNRAIQKMPEFYRICYCDEVLKFLLAARTHLDWRNNKVDATLMSILLIYLHAKIGEGLSNQMRMTKSMGMNYSVQWWKKNNMTTPPEINPCDFILKKIEWRYEKGKPKVSESAVVFGDSSNKLISIAERAINNDIKFSLLFTSPPYYSITDYHADQWLRLWLLGGSENPQSLKDKHKGRFVNKQEYYDLLDNVFGLCAKMMKRESTVYVRTDKREFTFNSTLEILKRHFPNHSVKIVEKPLTKDTKTQTKLFGDKTMKPGEVDIIMSRK | not soluble |
| MIAMAQQDVKPTRSELINLKKKIKLSESGHKLLKMKRDGLILEFFKILNEARNVRTELDAAFAKSTEKINLASAVNGMVAVRSTAFTAKESPEIQLSGHNIMGVVVPKISSTGVRKSLYERGYGIIGTNSYIDETADAYEDLVEKIITAAELETTMKRLLDEIEKTKRRVNALEFKVIPELIDTMKYIRFMLEEMERENTFRLKRVKARMRDLEHHHHHH | not soluble |
| MIANRPQHEKWAVIVNEFGEVGIDGAALLNDELAVAEIAGGCLCCVAGPQMTATVATLLRREKPDRLLIEASGLAHAAGVIDELRAKPLGEALEVAAVLTLVDPRQFIQPDYHRQPLYRDQISIADVLVANKIDTADIPTMEAFRAQAAALFPPKSLVGEVRDGQLDVAWLDAELAAKPRYRPAVLPDNASAWQSAGWTFDPELNFDGERLTRLFDGLPAKVPGLVRAKGVFRVLDSWVWLNWAAGQWGAAQVSWRRDSRFELIAPEFDAAAVEAWLKECLELEHHHHHH | not soluble |
| MIAVIFEVWPAEGEKQHYLDIAAGLRAELETIDGFLSIERFQSISNPEKMLSLSFFRDEQAVRAWRNTLPHRTAQALGRSGVFSDYRLRIAHVIRDYGLLEREEAPADSRDAHPVEGSSLG | not soluble |
| MIAVSFKCRCQILRRLTKDESPYTKSASQTKPPDGALAVRRQSIPEEFKGSTVVELMKKEGTTLGLTVSGGIDKDGKPRVSNLRQGGIAARSDQLDVGDYIKAVNGINLAKFRHDEIISLLKNVGERVVLEVEYELPPVSVQGSSVIFRTVEVTLHKEGNTFGFVIRGGAHDDRNKSRPVVITCVRPGGPADREGTIKPGDRLLSVDGIRLLGTTHAEAMSILKQCGQEAALLIEYDVSVMDSVATASGPLLVEVAKTPGASLGVALTTSMCCNKLVIVIDKIKSASIADRCGALHVGDHILSIDGTSMEYCTLAEATQFLANTTDQVKLEILPHHQTRLALKGPDHAALVSSSFSPTSMSAYSLSSLNMGTLPRSLYSTSPRGTMMRRRLKKKDFKSSLSLASSTVGLAGQVVHTETTEVVLTADPVTGFGIQLQGSVFATETLSSPPLISYIEADSPAERCGVLQIGDRVMAINGIPTEDSTFEEASLLLRDSSITSKVTLEIEFDVAESVIPSSGTFHVKLPKKHNVELGITISSPSSRKPGDPLVISDIKKGSVAHRTGTLELGDKLLAIDNIRLDNCSMEDAVQILQQCEDLVKLKIRKDEDNSDEQESSGAIIYTVELKRYGGPLGITISGTEEPFDPIIISSLTKGGLAERTGAIHIGDRILAINSSSLKGKPLSEAIHLLQMAGETVTLKIKKQTDAQSASSPKKFPISSHLSDLGDVEEDSSPAQKPGKLSDMYPSTVPSVDSAVDSWDGSAIDTSYGTEGTSFQASGYNFNTYDWRSPKQRGSLSPVTKPRSQTYPDVGLSYEDWDRSTASGFAGAADSAETEQEENFWSQALEDLETCGQSGILRELEATIMSGSTMSLNHEAPTPRSQLGRQASFQERSSSRPHYSQTTRSNTLPSDVGRKSVTLRKM | soluble |
| MIAYRSNQGVTRQRQQTKVFKLVSTYDKVAVKNAIRAAYRQVFERDLEPYIINSEFTALESKLSNNEINVKEFIEGLGTSELYMKEFYAPYPNTKVIEMGTKHFLGRAPLNQKEIQQYNQILASQGLKAFIGAMVNGMEYLQTFGEDTVPYRRFPTLPALEHHHHHH | not soluble |
| MICDNCKTREAVILQPHTGRKLCKECFIEDIRKRVEMEARKQEIVNSNKILLAVSGGKDSLVLADTLSQFIHPSRLIAFNINEGIKGYNRNEYVKKLEEYLKDLGIELIKSGFKEEVGFSLDEMLEASLKKKLNVSACTFCGGFRRKLINEAGIKVAADYVATGHNLDDEVQTIVINLIRGDLLRLIRFGDKPLMVSSKFVMRVKPLRKIYEWETTMYAHLKGFEFQETECPYISQKPTLRAKVRDLLYKLEEKKPGTLLRILEQFDEISEKIKKEYRLTNELPNCVICGEPTTPGRMICKNCELLIRSGLMPQEYQKYLPIS | not soluble |
| MIDCLVMAGGQGARMGFREKPLLSVCGQPMLLRVLSALRMACRRIAIVYSRHTPGVKRLCLSGALGAVECIEGPGSYVKDLRLGFSHISTPLLVAPADMPFLNPHHLNLFIDRALADGASIVNLSLRGRGLTGLSVFKHHRGWWRDVETNGCWALDVDTWEDFRRAGELCGGECTGEGLRLELLEHHHHHH | not soluble |
| MIDFSNFYQLIAKSPLSHWLETLPAQVAAWQRDALHGKFREWERAVEFLPELTPWRLDLLHSVTAESETPLSEGHQRRIENLLKNLMPWRKGPYSLYGINIDTEWRSDWKWERVLPHLSDLTGRTILDVGCGSGYHMWRMIGAGAHLAVGIDPTQLFLCQFEAVRKLLGNDQRAHLLPLGIEQLPALEAFDTVFSMGVLYHRRSPLDHLWQLKDQLAPGGELVLETLVVEGDENTVLVPGDRYAQMRNVYFIPSAAALKMWLEKCGFIDVRIVDACVTSTEEQRRTEWMTTESLADFLDPQDQRKTVEGYPAPLRAVIIATKPETQQSLAKKAR | not soluble |
| MIDKSGYRANVAIVLLNKQNRVFWGQRRNRTSWQFPQGGVATGETPLQAMYRELHEEIGLRPQDVEVIASTRDWYKYDIPDSLVRTKEPICIGQKQKWFLLKLKSPESYIDLDANDSPEFDNWRWVSYWYPINHVVYFKQEVYRKALTYFKEYIA | not soluble |
| MIDNVADGKIEADSKQAVNGGQLRDYTEQQMKIVLDDAKKYTDEQVKDRVSNGVNEAKSYTDMKFETLSYVVEDVRKAARQAVAMGLAVSNLRYYDIPGSLSLSFGTGIWRNQSAFAIGVGYTSEDGNIRSNLSITSADSHWDIGAGLRIKLN | not soluble |
| MIDQFMSMSELIDHTEEHKDWQILYNERVAKSLITAVHGGAIERGTSEIAQLISEIGGYSFYTFKGIRKNKNHELHVTSKHFDEPILNELVPTHEVVVSLHGCMGNDVAVYIGGKDLELSYEITQQLQKIGIVVKPAPAHIAGMQTENFVNKGKRDAGVQLELTVALRKQCFKNNKYNLHDRENRENWSQLMFSFSTAIANALKILNDLEHHHHHH | not soluble |
| MIDREQIVRIVSDYLSTGETFLVEVAIHPGNRILVELDSAQGVCIDECVALSRHIESQVDRDIEDYELEVGSTGLTSPLKVMRQWENCIDSELSVLLTNGMKETGRLITVAPEAIKLEVVRMVKPEGAKRKKPETQELTIVMADIKQAVRII | not soluble |
| MIDVKSIILIVLDGLGDRPGEILGYRTPLQAAYHPNMNRMASLGMTGLMHPISPGIRSGSDTSHMSLLGYDPRVYYQGRGPFEALGLHMDMKPGDLAFRANFATNRDGKIIDRRAGRINAGNDQLASAISIDIGNYKFRVKSGVEHRAALVVSGPNLSDKISDSDPHSEGKPPEPIRPLDPSADSTAKIMNEYLKRIREILRDHPVNVEREKNGQIPGNELLIRSAGKVPDIPSFQEKNGITGACVVGSPWLKGLCRLLGMAVIDVPGAAGTINSNYTGKIKTAIDASKRYDFVLVNIKATDVAGHDGDYELKRRVIEDIDIAMEPLLGQSDRIVVAITGDHSTPCSVKDHSGDPVPIVFYTDGIYSDDVKLFDEVSAMKGALRITTQDVLNILMEMAGRAEKFGSLEHHHHHH | soluble |
| MIEDYALIGDMQIAALVCQDGTVDWLCLPRFDSHAVFAGLLGTEEHGFWRLGPAHASDAEPPRASRRTYRGDSLILESEWDTPRGTVRVTDFMPPRDGAPQLIRIVEGVTGRVPMRSALEHHHHHH | soluble |
